Laboratory results: doi:10.1101/2021.01.28.428602 (bioRxiv, 2021)
Like-named read-outs stand apart in the source and are kept apart here.

Tests used:
[1] = target: GABAA receptor β3 subunit alone on COS7 cells (Rattus norvegicus (construct of ref. 7), UniProt P63079); test: immunostaining of cells or tissue
[2] = target: α1β3 GABAA receptor on COS7 cells (Rattus norvegicus (construct of ref. 7), UniProt P62813;P63079); test: immunostaining of cells or tissue
[3] = target: GABAA receptor γ2 subunit alone on COS7 cells (Rattus norvegicus (rat or mouse …, UniProt P18508)); test: immunostaining of cells or tissue
Chain of GABAA receptor γ2 subunit alone on COS7 cells (Rattus norvegicus (P18508 39-466): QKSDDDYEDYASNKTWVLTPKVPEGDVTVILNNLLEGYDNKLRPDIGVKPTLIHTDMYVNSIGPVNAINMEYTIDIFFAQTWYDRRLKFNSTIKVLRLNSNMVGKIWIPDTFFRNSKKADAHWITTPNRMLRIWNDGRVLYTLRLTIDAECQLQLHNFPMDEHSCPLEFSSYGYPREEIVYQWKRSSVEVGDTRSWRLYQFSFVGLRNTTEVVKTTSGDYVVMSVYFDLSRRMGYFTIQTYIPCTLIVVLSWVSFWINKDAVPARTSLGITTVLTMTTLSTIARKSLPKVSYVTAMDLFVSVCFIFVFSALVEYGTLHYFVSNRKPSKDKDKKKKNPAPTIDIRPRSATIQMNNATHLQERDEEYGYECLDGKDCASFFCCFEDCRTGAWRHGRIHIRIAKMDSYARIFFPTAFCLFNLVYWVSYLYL

[4] = target: α1β2γ2 GABAA receptor on COS7 cells (Rattus norvegicus (gamma-2 rat or …, UniProt P62813;P63138;P18508)); test: immunostaining of cells or tissue
[5] = target: T1, α3β3γ2 GABAA receptor on COS7 cells (Rattus norvegicus (gamma-2 rat or mouse …, UniProt P20236;P63079;P18508)); test: immunostaining of cells or tissue
T1 sequence (P20236 29-493, chain 1 of 3): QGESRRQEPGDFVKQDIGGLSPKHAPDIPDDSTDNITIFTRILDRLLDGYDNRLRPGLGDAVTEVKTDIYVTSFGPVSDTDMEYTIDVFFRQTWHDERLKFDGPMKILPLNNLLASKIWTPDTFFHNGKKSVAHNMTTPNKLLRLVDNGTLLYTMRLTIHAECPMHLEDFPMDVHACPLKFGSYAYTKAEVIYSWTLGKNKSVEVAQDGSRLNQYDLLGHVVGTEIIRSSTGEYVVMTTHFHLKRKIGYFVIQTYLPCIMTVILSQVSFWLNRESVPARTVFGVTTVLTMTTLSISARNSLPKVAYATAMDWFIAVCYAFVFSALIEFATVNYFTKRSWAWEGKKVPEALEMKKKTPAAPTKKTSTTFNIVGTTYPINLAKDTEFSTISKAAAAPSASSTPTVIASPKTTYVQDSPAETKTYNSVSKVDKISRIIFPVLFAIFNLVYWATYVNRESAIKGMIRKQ
T1 sequence (P63079 26-473, chain 2 of 3): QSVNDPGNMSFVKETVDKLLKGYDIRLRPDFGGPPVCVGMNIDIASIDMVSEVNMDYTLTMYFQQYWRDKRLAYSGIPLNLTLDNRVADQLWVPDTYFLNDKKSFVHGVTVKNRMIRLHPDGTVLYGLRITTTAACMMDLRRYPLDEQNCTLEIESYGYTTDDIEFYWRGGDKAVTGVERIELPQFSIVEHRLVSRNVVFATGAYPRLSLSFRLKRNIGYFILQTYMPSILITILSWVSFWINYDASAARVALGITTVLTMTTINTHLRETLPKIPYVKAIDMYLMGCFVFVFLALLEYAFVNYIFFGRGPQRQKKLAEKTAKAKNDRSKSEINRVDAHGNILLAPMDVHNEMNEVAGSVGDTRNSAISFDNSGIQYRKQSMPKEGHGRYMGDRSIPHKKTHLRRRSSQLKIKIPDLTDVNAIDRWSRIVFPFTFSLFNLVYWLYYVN
T1 sequence (P18508 39-466, chain 3 of 3): as the sequence (P18508 39-466) above

[6] = target: T2, α4β3γ2 GABAA receptor on COS7 cells (Rattus norvegicus (gamma-2 rat or mouse …, UniProt P28471;P63079;P18508)); test: immunostaining of cells or tissue
[7] = target: β3γ2 GABAA receptor subunits on COS7 cells (Rattus norvegicus (gamma-2 rat or …, UniProt P63079;P18508)); test: immunostaining of cells or tissue
[8] = target: α1β3γ2 GABAA receptor on COS7 cells (Rattus norvegicus (gamma-2 rat or …, UniProt P62813;P63079;P18508)); test: immunostaining of cells or tissue
Chain of α1β3γ2 GABAA receptor on COS7 cells (Rattus norvegicus (P62813 28-455, chain 1 of 3): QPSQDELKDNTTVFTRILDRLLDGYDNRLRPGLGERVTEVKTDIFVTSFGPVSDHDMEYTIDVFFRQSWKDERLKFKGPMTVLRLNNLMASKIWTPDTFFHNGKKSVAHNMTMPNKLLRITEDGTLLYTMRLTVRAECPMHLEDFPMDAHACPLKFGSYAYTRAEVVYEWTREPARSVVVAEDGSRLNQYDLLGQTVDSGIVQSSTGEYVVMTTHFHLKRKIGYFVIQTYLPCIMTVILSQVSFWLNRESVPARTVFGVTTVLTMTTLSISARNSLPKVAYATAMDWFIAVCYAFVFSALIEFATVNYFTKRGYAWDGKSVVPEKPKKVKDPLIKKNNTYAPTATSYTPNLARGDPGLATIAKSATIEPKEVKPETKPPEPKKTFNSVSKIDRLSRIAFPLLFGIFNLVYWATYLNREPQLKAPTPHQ
Chain of α1β3γ2 GABAA receptor on COS7 cells (Rattus norvegicus (P63079 26-473, chain 2 of 3): as the sequence (P63079 26-473, chain 2 of 3) above
Chain of α1β3γ2 GABAA receptor on COS7 cells (Rattus norvegicus (P18508 39-466, chain 3 of 3): as the sequence (P18508 39-466) above

[9] = target: T3, α5β3γ2 GABAA receptor on COS7 cells (Rattus norvegicus (gamma-2 rat or mouse …, UniProt P19969;P63079;P18508)); test: immunostaining of cells or tissue
[10] = target: T4, α2β3γ2 GABAA receptor on COS7 cells (Rattus norvegicus (gamma-2 rat or mouse …, UniProt P23576;P63079;P18508)); test: immunostaining of cells or tissue
[11] = target: rat α1β3γ2 GABAA receptor on HEK293T cells (Rattus norvegicus, UniProt P62813;P63079;P18508); test: flow cytometry on cells
[12] = target: rat α1β3 GABAA receptor on HEK293T cells (Rattus norvegicus, UniProt P62813;P63079); test: immunostaining of cells or tissue
[13] = target: T1, α3β3γ2 GABAA receptor on COS7 cells; test: immunostaining of cells or tissue; remark: listed apart in the source
[14] = target: T2, α4β3γ2 GABAA receptor on COS7 cells; test: immunostaining of cells or tissue; remark: listed apart in the source
[15] = target: T3, α5β3γ2 GABAA receptor on COS7 cells; test: immunostaining of cells or tissue; remark: listed apart in the source
[16] = target: T4, α2β3γ2 GABAA receptor on COS7 cells; test: immunostaining of cells or tissue; remark: listed apart in the source

Chain of α1β3 GABAA receptor on COS7 cells (P62813 28-455, chain 1 of 2): as the sequence (P62813 28-455, chain 1 of 3) above
Chain of α1β3 GABAA receptor on COS7 cells (P63079 26-473, chain 2 of 2): as the sequence (P63079 26-473, chain 2 of 3) above
Chain of GABAA receptor β3 subunit alone on COS7 cells (P63079 26-473): as the sequence (P63079 26-473, chain 2 of 3) above

Binder | binding result [1] | binding result [2] | binding result [3] | binding result [4] | binding result [5] | binding result [6] | binding result [7] | binding result [8] | binding result [9] | binding result [10] | binding result [11] | binding result [12] | binding result [13] | binding result [14] | binding result [15] | binding result [16]
human monoclonal GABAAR antibody #113-175 (antibody, V domains shown) VH: EVQLLESGEGLVQPGGSLRLSCAASGFTFKTYAMSWVRQAPGKGLEWVSAISGSGASTYYADFVEGRFTISRDNSKNTLYLQMNSLRAEDTAVYYCAKEPPAMVWFGGGYFDYWGQGTLVTVSS VL: EIVLTQSPATLSLSPGERATLSCRASQSVSSYLAWYQQKPGQAPRLLIYDASNRATGIPARFSGSGSGTDFTLTISSLEPEDFAVYYCQQRSNWPPYSFGQGTKLEIK | no binding (tested: 5 μg/ml) | no binding (tested: 5 μg/ml) | no binding (tested: 5 μg/ml) | binds | no binding (tested: 5 μg/ml) | no binding (tested: 5 μg/ml) | no binding (tested: 5 μg/ml) | binds | no binding (tested: 5 μg/ml) | no binding (tested: 5 μg/ml) | binds |  |  |  |  | 
human monoclonal GABAAR antibody #113-115 (antibody, V domains shown) VH: QVQLVQSGAEVKKPGASVKVSCKASGYTFISYDINWVRQATGQGLEWMGGMDPKSGNTGYAQKFQGRVTMTTNTAISTAYMELSSLRSEDTAVYYCVRGEQSYDRTGYSDWFDPWGQGTLVTVSS VL: not shown | no binding (tested: 5 μg/ml) | binds | no binding (tested: 5 μg/ml) |  |  |  |  | binds |  |  | binds | binds | no binding | no binding | no binding | no binding
